B1: Transcription factor 12 (Homo sapiens), Q99081-3 (parent)
chain: MNPQQQRMAAIGTDKELSDLLDFSAMFSPPVNSGKTRPTTLGSSQFSGSGIDERGGTTSWGTSGQPSPSYDSSRGFTDSPHYSDHLNDSRLGAHEGLSPTPFMNSNLMGKTSERGSFSLYSRDTGLPGCQSSLLRQDLGLGSPAQLSSSGKPGTAYYSFSATSSRRRPLHDSAALDPLQAKKVRKVPPGLPSSVYAPSPNSDDFNRESPSYPSPKPPTSMFASTFFMQDGTHNSSDLWSSSNGMSQPGFGGILGTSTSHMSQSSSYGNLHSHDRLSYPPHSVSPTDINTSLPPMSSFHRGSTSSSPYVAASHTPPINGSDSILGTRGNAAGSSQTGDALGKALASIYSPDHTSSSFPSNPSTPVGSPSPLTGTSQWPRPGGQAPSSPSYENSLHSLKNRVEQQLHEHLQDAMSFLKDVCEQSRMEDRLDRLDDAIHVLRNHAVGPSTSLPAGHSDIHSLLGPSHNAPIGSLNSNYGGSSLVASSRSASMVGTHREDSVSLNGNHSVLSSTVTTSSTDLNHKTQENYRGGLQSQSGTVVTTEIKTENKEKDENLHEPPSSDDMKSDDESSQKDIKVSSRGRTSSTNEDEDLNPEQKIEREKERRMANNARERLRVRDINEAFKELGRMCQLHLKSEKPQTKLLILHQAVAVILSLEQQVRERNLNPKAACLKRREEEKVSAVSAEPPTTLPGTHPGLSETTNPMGHM
partner: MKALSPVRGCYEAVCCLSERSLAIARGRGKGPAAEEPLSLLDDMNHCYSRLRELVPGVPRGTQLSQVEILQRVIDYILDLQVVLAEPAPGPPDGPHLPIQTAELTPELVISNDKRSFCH
B2: Four and a half LIM domains protein 2 (Homo sapiens), Q14192 (parent)
chain: MTERFDCHHCNESLFGKKYILREESPYCVVCFETLFANTCEECGKPIGCDCKDLSYKDRHWHEACFHCSQCRNSLVDKPFAAKEDQLLCTDCYSNEYSSKCQECKKTIMPGTRKMEYKGSSWHETCFICHRCQQPIGTKSFIPKDNQNFCVPCYEKQHAMQCVQCKKPITTGGVTYREQPWHKECFVCTACRKQLSGQRFTARDDFAYCLNCFCDLYAKKCAGCTNPISGLGGTKYISFEERQWHNDCFNCKKCSLSLVGRGFLTERDDILCPDCGKDI
partner: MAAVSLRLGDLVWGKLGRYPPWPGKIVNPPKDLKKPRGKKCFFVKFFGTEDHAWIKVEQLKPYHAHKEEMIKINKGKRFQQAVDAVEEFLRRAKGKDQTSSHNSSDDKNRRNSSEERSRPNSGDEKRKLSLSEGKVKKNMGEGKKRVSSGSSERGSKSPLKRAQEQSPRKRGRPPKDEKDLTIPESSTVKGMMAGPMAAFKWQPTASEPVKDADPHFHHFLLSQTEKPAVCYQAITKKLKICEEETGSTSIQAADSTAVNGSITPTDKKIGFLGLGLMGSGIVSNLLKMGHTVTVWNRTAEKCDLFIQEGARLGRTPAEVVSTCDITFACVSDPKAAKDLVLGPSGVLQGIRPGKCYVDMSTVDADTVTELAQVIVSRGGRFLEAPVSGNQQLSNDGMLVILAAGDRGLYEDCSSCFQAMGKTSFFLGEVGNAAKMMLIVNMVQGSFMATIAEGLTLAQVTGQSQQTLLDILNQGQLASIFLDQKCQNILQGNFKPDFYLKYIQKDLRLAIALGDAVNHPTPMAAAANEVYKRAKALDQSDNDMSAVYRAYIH
B3: Bcl-2-interacting killer (Homo sapiens), Q13323 (parent)
chain: MSEVRPLSRDILMETLLYEQLLEPPTMEVLGMTDSEEDLDPMEDFDSLECMEGSDALALRLACIGDEMDVSLRAPRLAQLSEVAMHSLGLAFIYDQTEDIRDVLRSFMDGFTTLKENIMRFWRSPNPGSWVSCEQVLLALLLLLALLLPLLSGGLHLLLK
partner: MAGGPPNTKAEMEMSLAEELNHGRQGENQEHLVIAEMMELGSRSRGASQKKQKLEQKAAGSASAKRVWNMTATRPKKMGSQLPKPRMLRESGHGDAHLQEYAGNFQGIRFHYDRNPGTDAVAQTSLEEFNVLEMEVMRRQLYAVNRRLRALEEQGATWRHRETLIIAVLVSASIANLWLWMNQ
B4: Phosphoserine phosphatase (Homo sapiens), P78330 (parent)
chain: MVSHSELRKLFYSADAVCFDVDSTVIREEGIDELAKICGVEDAVSEMTRRAMGGAVPFKAALTERLALIQPSREQVQRLIAEQPPHLTPGIRELVSRLQERNVQVFLISGGFRSIVEHVASKLNIPATNVFANRLKFYFNGEYAGFDETQPTAESGGKGKVIKLLKEKFHFKKIIMIGDGATDMEACPPADAFIGFGGNVIRQQVKDNAKWYITDFVELLGELEE
partner: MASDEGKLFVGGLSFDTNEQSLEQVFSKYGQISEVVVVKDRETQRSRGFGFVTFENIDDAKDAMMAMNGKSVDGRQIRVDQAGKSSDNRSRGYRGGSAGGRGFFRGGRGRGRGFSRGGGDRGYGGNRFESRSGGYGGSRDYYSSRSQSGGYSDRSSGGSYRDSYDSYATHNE
B5: Fructose-1,6-bisphosphatase isozyme 2 (Homo sapiens), O00757 (parent)
chain: MTDRSPFETDMLTLTRYVMEKGRQAKGTGELTQLLNSMLTAIKAISSAVRKAGLAHLYGIAGSVNVTGDEVKKLDVLSNSLVINMVQSSYSTCVLVSEENKDAIITAKEKRGKYVVCFDPLDGSSNIDCLASIGTIFAIYRKTSEDEPSEKDALQCGRNIVAAGYALYGSATLVALSTGQGVDLFMLDPALGEFVLVEKDVKIKKKGKIYSLNEGYAKYFDAATTEYVQKKKFPEDGSAPYGARYVGSMVADVHRTLVYGGIFLYPANQKSPKGKLRLLYECNPVAYIIEQAGGLATTGTQPVLDVKPEAIHQRVPLILGSPEDVQEYLTCVQKNQAGS
B6: Adenosylhomocysteinase (Homo sapiens), P23526 (parent)
chain: MSDKLPYKVADIGLAAWGRKALDIAENEMPGLMRMRERYSASKPLKGARIAGCLHMTVETAVLIETLVTLGAEVQWSSCNIFSTQDHAAAAIAKAGIPVYAWKGETDEEYLWCIEQTLYFKDGPLNMILDDGGDLTNLIHTKYPQLLPGIRGISEETTTGVHNLYKMMANGILKVPAINVNDSVTKSKFDNLYGCRESLIDGIKRATDVMIAGKVAVVAGYGDVGKGCAQALRGFGARVIITEIDPINALQAAMEGYEVTTMDEACQEGNIFVTTTGCIDIILGRHFEQMKDDAIVCNIGHFDVEIDVKWLNENAVEKVNIKPQVDRYRLKNGRRIILLAEGRLVNLGCAMGHPSFVMSNSFTNQVMAQIELWTHPDKYPVGVHFLPKKLDEAVAEAHLGKLNVKLTKLTEKQAQYLGMSCDGPFKPDHYRY
B7: Retinoic acid receptor RXR-gamma (Homo sapiens), P48443 (parent)
chain: MYGNYSHFMKFPAGYGGSPGHTGSTSMSPSAALSTGKPMDSHPSYTDTPVSAPRTLSAVGTPLNALGSPYRVITSAMGPPSGALAAPPGINLVAPPSSQLNVVNSVSSSEDIKPLPGLPGIGNMNYPSTSPGSLVKHICAICGDRSSGKHYGVYSCEGCKGFFKRTIRKDLIYTCRDNKDCLIDKRQRNRCQYCRYQKCLVMGMKREAVQEERQRSRERAESEAECATSGHEDMPVERILEAELAVEPKTESYGDMNMENSTNDPVTNICHAADKQLFTLVEWAKRIPHFSDLTLEDQVILLRAGWNELLIASFSHRSVSVQDGILLATGLHVHRSSAHSAGVGSIFDRVLTELVSKMKDMQMDKSELGCLRAIVLFNPDAKGLSNPSEVETLREKVYATLEAYTKQKYPEQPGRFAKLLLRLPALRSIGLKCLEHLFFFKLIGDTPIDTFLMEMLETPLQIT
partner: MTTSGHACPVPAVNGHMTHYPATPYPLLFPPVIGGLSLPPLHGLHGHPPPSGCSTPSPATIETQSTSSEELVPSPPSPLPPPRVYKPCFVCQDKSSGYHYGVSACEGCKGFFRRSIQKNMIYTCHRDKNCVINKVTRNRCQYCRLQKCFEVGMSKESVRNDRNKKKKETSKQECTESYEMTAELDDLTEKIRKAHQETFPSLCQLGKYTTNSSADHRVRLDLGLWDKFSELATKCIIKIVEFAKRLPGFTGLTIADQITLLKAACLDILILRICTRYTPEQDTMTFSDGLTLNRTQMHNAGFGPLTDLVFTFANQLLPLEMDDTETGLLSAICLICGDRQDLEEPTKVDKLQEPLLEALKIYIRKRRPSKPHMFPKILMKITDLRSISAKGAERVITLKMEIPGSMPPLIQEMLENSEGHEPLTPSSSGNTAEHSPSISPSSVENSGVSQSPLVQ
B8: Conserved oligomeric Golgi complex subunit 7 (Homo sapiens), P83436 (parent)
chain: MDFSKFLADDFDVKEWINAAFRAGSKEAASGKADGHAATLVMKLQLFIQEVNHAVEETSHQALQNMPKVLRDVEALKQEASFLKEQMILVKEDIKKFEQDTSQSMQVLVEIDQVKSRMQLAAESLQEADKWSTLSADIEETFKTQDIAVISAKLTGMQNSLMMLVDTPDYSEKCVHLEALKNRLEALASPQIVAAFTSQAVDQSKVFVKVFTEIDRMPQLLAYYYKCHKVQLLAAWQELCQSDLSLDRQLTGLYDALLGAWHTQIQWATQVFQKPHEVVMVLLIQTLGALMPSLPSCLSNGVERAGPEQELTRLLEFYDATAHFAKGLEMALLPHLHEHNLVKVTELVDAVYDPYKPYQLKYGDMEESNLLIQMSAVPLEHGEVIDCVQELSHSVNKLFGLASAAVDRCVRFTNGLGTCGLLSALKSLFAKYVSDFTSTLQSIRKKCKLDHIPPNSLFQEDWTAFQNSIRIIATCGELLRHCGDFEQQLANRILSTAGKYLSDSCSPRSLAGFQESILTDKKNSAKNPWQEYNYLQKDNPAEYASLMEILYTLKEKGSSNHNLLAAPRAALTRLNQQAHQLAFDSVFLRIKQQLLLISKMDSWNTAGIGETLTDELPAFSLTPLEYISNIGQYIMSLPLNLEPFVTQEDSALELALHAGKLPFPPEQGDELPELDNMADNWLGSIARATMQTYCDAILQIPELSPHSAKQLATDIDYLINVMDALGLQPSRTLQHIVTLLKTRPEDYRQVSKGLPRRLATTVATMRSVNY
B9: Protein DBF4 homolog A (Homo sapiens), Q9UBU7 (parent)
chain: MNSGAMRIHSKGHFQGGIQVKNEKNRPSLKSLKTDNRPEKSKCKPLWGKVFYLDLPSVTISEKLQKDIKDLGGRVEEFLSKDISYLISNKKEAKFAQTLGRISPVPSPESAYTAETTSPHPSHDGSSFKSPDTVCLSRGKLLVEKAIKDHDFIPSNSILSNALSWGVKILHIDDIRYYIEQKKKELYLLKKSSTSVRDGGKRVGSGAQKTRTGRLKKPFVKVEDMSQLYRPFYLQLTNMPFINYSIQKPCSPFDVDKPSSMQKQTQVKLRIQTDGDKYGGTSIQLQLKEKKKKGYCECCLQKYEDLETHLLSEQHRNFAQSNQYQVVDDIVSKLVFDFVEYEKDTPKKKRIKYSVGSLSPVSASVLKKTEQKEKVELQHISQKDCQEDDTTVKEQNFLYKETQETEKKLLFISEPIPHPSNELRGLNEKMSNKCSMLSTAEDDIRQNFTQLPLHKNKQECILDISEHTLSENDLEELRVDHYKCNIQASVHVSDFSTDNSGSQPKQKSDTVLFPAKDLKEKDLHSIFTHDSGLITINSSQEHLTVQAKAPFHTPPEEPNECDFKNMDSLPSGKIHRKVKIILGRNRKENLEPNAEFDKRTEFITQEENRICSSPVQSLLDLFQTSEEKSEFLGFTSYTEKSGICNVLDIWEEENSDNLLTAFFSSPSTSTFTGF

Variants of: B1
Conditions: with id3_human ID3, Q02535

effect of a mutation on the interaction	Variant
with no effect	N606H

Variants of: B2
Conditions: with glyr1_human GLYR1, Q49A26

effect of a mutation on the interaction	Variant
with no effect	N95K
with no effect	A37S

Variants of: B3
Conditions: with fate1_human FATE1, Q969F0

effect of a mutation on the interaction	Variant
with no effect	D69E

Variants of: B4
Conditions: with cirbp_human CIRBP

effect of a mutation on the interaction	Variant
with no effect	T149M
with no effect	T152I

Variants of: B5
Conditions: with FBP1, P09467
Sequence of FBP1, P09467 (P09467 whole entry): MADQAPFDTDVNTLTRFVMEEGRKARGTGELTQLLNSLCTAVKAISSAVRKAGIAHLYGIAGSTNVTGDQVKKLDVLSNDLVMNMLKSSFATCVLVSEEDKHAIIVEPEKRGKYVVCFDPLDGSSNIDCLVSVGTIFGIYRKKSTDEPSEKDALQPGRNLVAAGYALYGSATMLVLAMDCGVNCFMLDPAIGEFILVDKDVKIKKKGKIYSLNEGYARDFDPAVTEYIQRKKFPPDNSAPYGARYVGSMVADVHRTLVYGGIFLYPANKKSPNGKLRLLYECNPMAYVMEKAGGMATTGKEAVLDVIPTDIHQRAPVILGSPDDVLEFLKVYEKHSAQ

effect of a mutation on the interaction	Variant
with no effect	Y216C

Variants of: B6
Conditions: with ca050_human C1orf50, Q9BV19
Sequence of ca050_human C1orf50, Q9BV19 (Q9BV19 whole entry): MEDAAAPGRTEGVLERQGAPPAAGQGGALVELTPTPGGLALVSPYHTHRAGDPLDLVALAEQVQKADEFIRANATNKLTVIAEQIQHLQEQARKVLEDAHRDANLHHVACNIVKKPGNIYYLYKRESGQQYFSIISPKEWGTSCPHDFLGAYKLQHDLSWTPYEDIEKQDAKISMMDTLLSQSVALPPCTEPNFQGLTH

effect of a mutation on the interaction	Variant
with no effect	I92V

Variants of: B7
Conditions: with rarb_human RARB

effect of a mutation on the interaction	Variant
with no effect	A86V

Variants of: B8
Conditions: with taxb1_human TAX1BP1, Q86VP1
Sequence of taxb1_human TAX1BP1, Q86VP1 (Q86VP1 whole entry): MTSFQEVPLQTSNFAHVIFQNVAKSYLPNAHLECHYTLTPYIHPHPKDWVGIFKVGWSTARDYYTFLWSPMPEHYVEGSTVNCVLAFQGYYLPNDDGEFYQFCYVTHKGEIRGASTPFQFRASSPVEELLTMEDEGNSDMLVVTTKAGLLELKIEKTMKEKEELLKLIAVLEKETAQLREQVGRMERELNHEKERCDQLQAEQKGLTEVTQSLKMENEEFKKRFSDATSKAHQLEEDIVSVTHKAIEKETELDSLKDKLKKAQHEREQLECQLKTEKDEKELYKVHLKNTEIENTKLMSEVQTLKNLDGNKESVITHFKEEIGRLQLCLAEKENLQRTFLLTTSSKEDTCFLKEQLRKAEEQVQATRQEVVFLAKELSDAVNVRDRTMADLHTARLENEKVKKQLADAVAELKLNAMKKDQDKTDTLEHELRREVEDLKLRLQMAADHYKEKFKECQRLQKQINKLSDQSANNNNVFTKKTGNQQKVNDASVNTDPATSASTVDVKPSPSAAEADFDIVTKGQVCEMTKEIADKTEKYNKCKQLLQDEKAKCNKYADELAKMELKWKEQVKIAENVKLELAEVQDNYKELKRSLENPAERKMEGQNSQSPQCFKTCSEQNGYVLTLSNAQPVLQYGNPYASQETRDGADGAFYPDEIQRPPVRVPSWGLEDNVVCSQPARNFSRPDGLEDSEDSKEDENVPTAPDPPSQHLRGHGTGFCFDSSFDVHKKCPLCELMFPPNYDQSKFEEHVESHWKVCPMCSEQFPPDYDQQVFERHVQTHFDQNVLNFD

effect of a mutation on the interaction	Variant
with no effect	Q749K

Variants of: B9
Conditions: with cdc7_human CDC7, O00311

effect of a mutation on the interaction	Variant
with no effect	I526V
with no effect	K579E

Source: IntAct's records for PubMed 31515488
